Results published in US9056102B2, “VEGF-activated trail ligands” (The Regents of the University of California, priority 2005, dated 2015).

B1: R2FasL: FLAG epitope-tagged VEGFR2/FasL fusion protein expressed from pFLAG/R2FasL; apparently the FLAG-tagged form of FlkFasL (protein)
chain: AASVGLPGDFLHPPKLSTQKDILTILANTTLQITCRGQRDLDWLWPNAQRDSEERVLVTECGGGDSIFCKTLTIPRVVGNDTGAYKCSYRDVDIASTVYVYVRDYRSPFIASVSDQHGIVYITENKNKTVVIPCRGSISNLNVSLCARYPEKRFVPDGNRISWDSEIGFTLPSYMISYAGMVFCEAKINDETYQSIMYIVVVVGYRIYDVILSPPHEIELSAGEKLVLNCTARTELNVGLDFTWHSPPSKSHHKKIVNRDVKPFPGTVAKMFLSTLTIESVTKSDQGEYTCVASSGRMIKRNRTFVRVHTKPFIAFGSARGTSEKKELRKVAHLTGKSNSRSMPLEWEDTYGIVLLSGVKYKKGGLVINETGLYFVYSKVYFRGQSCNNLPLSHKVYMRNSKYPQDLVMMEGKMMSYCTTGQMWARSSYLGAVFNLTSADHLYVNVSELSLVNFEESQTFFGLYKL
modifications: left off: small tags and cut ends
notes: apparently the FLAG-tagged form of FlkFasL

Tests used:
[1] = test system: U87MG human glioblastoma cells; assay: Potentiation of R2FasL by chemotherapeutic agents, resazurin cell viability assay; type: cell-based; settings: 72 hours drug (Bis VIII 1 μM, camptothecin 20 nM, etoposide 5 μM), then R2FasL 10 μL/well for 40 hours
[2] = test system: U87MG human glioblastoma cells; assay: Potentiation of R2FasL by chemotherapeutic agents, LDH release assay; settings: 72 hours drug (Bis VIII 1 μM, camptothecin 20 nM, etoposide 5 μM), then R2FasL 10 μL/well for 40 hours
Description: To determine if the activity of R2FasL can be potentiated by chemotherapeutic agents, the following experiments were performed. U87MG human glioblastoma cells were plated in 96-well plates in 100 μL of complete medium with 10% fetal calf serum at 25,000 cells/well. Forty-eight hours later cells were treated with either bisindolylmaleimide VIII (Bis VIII, final concentration 1 μM), camptothecin (final concentration 20 nM), etoposide (final concentration 5 μM), or DMSO vehicle (1 μL/well). Bis VIII, camptothecin, and etoposide (all from Biomol) were dissolved in DMSO and added at 1 μL/well. After 72 hours of drug exposure, cells were treated with FLAG antibody affinity-purified R2FasL solution (10 μL/well), and incubated for an additional 40 hours. Cell viability and cytotoxicity were assayed using the resazurin assay and the LDG release assay, respectively, as described above.

[3] = test system: Bovine adrenal cortical endothelial cells; assay: Microvascular endothelial cell cytotoxicity, LDH release assay; type: cell-based; settings: 2 μL/well conditioned medium, with 2 nM rhVEGF-165, 24 hours
Description: Twenty-two hours later conditioned medium from Cos7 cells transfected with either pFLAG/R2FasL or empty pFLAG vector was added (2 μL/well), in the absence or presence of rhVEGF-165 (final concentration 2 nM). Twenty-four hours later cytotoxicity was assayed using the LDH release assay as described above.

[4] = test system: U87MG human glioblastoma cells; assay: Cell death in glioblastoma cells, Trypan blue cell counting; type: cell-based; settings: Cos7 conditioned medium with R2FasL, 36 hours
Description: To investigate if R2FasL induces apoptosis in human glioblastoma the following experiment was performed. […] Twenty-four hours later conditioned medium from Cos7 cells transfected with either pFLAG/R2FasL or empty pFLAG vector was added (FIG. 17B). The concentration of R2FasL was determined separately by quantitative immunoblotting using commercially produced rhsFasL as standard (R&S Systems). After 36 more hours, cells were trypsinized, stained with Trypan blue, and counted on a hemocytometer. Data in FIG. 17B are shown as mean±SEM.

[5] = test system: Jurkat E6.1 human T cells; assay: Jurkat cell viability, resazurin (AlamarBlue) assay; type: cell-based; settings: 1 μL/well conditioned medium, rhVEGF-165 or rmVEGF-165 0.001-10 nM, 18 hours
Description: Conditioned medium (0.001, 0.01, 0.1, 1, or 10 μL) from Cos7 cells transfected with pFLAG/R1[D2]FasL vector was added in the absence or presence of rhVEGF-165 (final concentration 2 nM). Twenty-two hours later cell viability was assayed using the resazurin assay (AlamarBlue reagent from BioSource). Conversion of AlamarBlue substrate to product by viable cells was determined by adding 20 μL of AlamarBlue to each well and measuring absorbance at 540 nm and […]. Calculation of % conversion of substrate to product was performed according to the manufacturer's protocol.
To investigate which growth factors activate R1[D2]FasL the following experiment was performed. […] All growth factors were used at a final concentration of 10 nM, and were from Peprotech or R&D Systems. Nineteen hours later cell viability was assayed using the resazurin assay as described above.
In a similar experiment, the concentration of the growth factors tested was varied. […] Conditioned medium from Cos7 cells transfected with either pFLAG/R2FasL vector or empty pFLAG vector was added (1 μL/well), in the absence or presence of rhVEGF-165 or rmVEGF-165 at the final concentrations of 0.001, 0.01, 0.1, 1, and 10 nM. Eighteen hours later cell viability was assayed using the resazurin assay as described herein.
To determine the ED50 for hVEGF-165 on R1[D2]FasL the following experiment was performed. […] Conditioned medium from Cos7 cells transfected with pFLAG/R1[D2]FasL vector was added (2 μL/well), in the absence or presence of rhVEGF-165 at 0, 0.01, 0.1, 1, 10, 100, 1,000, or 10,000 nM. Nineteen hours later cell viability was assayed using the resazurin assay as described above.
In a similar experiment the ED50 for hVEGF-165 on R2FasL was determined. […] Conditioned medium from Cos7 cells transfected with pFLAG/R2FasL vector was added in the volumes indicated, in the absence or presence of rhVEGF-165 at the final concentrations of […], 0.2 and 2 nM. Eighteen hours later cell viability was assayed using the resazurin assay. The ED50 for rhVEGF-165 was between 20 pM and 200 pM (FIG. 21B).

[6] = test system: Human umbilical vein endothelial cells (HUVEC); assay: Macrovascular endothelial cell viability, resazurin assay; type: cell-based; settings: serum-starved, 10 μL/well conditioned medium, with 2 nM rhVEGF-165, 22 hours
Description: R2FasL may be differentially active in tumor endothelial cells (microvascular) and less toxic to normal macrovascular endotherlial cells, such as arteries and veins. […] Twenty-four hours later serum starvation was begun (to sensitize cells to death signals) by withdrawing serum. After fifteen hours of serum starvation cells were treated Cos7 cell conditioned medium containing R2FasL (10 μL/well) in the absence or presence of rh VEGF-165 (final concentration 2 nM). After 22 hours of treatment with R2FasL±rhVEGF cell viability was assayed using the resazurin assay as described herein. No effect of R2FasL+VEGF was seen on these macrovascular endothelial cells (FIG. 20A).

[7] = test system: U87MG human glioblastoma cells; assay: LDH release cytotoxicity assay in glioblastoma cells; type: cell-based; settings: FLAG-purified R2FasL solution 0-10 μL/well, 24 hours
Description: R2FasL solution (0, 0.01, 0.1, 1, or 10 μL), purified by FLAG epitope tag affinity chromatography, was then added to each well (FIG. 17A). In addition, each well received 300 ng of neutralizing anti-VEGF antibody, neutralizing anti-FasL antibody, or control goat Ig (all from R&S Systems). Twenty-four hours later the cells were assayed for cytotoxicity using the LDH release assay (Roche), in which 10 μL of cell supernatant is mixed with 100 μL LDH reaction mixture in a total reaction volume of 200 μL. Cytotoxicity was assayed spectrophotometrically by measuring absorbance at 492 nm.

[8] = test system: DU145 human prostate cancer cells; assay: LDH release cytotoxicity assay in prostate cancer cells; type: cell-based; settings: Cos7 conditioned medium with R2FasL, 34 hours
Description: DU145 human prostate cancer cells were plated in 24-well plates in 500 μL of complete medium with 10% fetal calf serum and allowed to grow for 54 hours without change of medium. Conditioned medium from Cos7 cells transfected with either pFLAG/R2FasL or empty pFLAG vector was added in the indicated volumes. After 34 more hours cytotoxicity was assayed using the LDH release assay as described above.

[9] = test system: U373 human glioblastoma cells; assay: LDH release cytotoxicity assay in Fas-resistant glioblastoma cells; type: cell-based; settings: Cos7 conditioned medium with R2FasL, 36 hours; cells resistant to Fas receptor-mediated killing
Description: To investigate the specificity of the R2FasL activity on U87MG glioblastoma cells, the cytotoxic effect of R2FasL on the U373 glioblastoma cell line, was analyzed. […] Conditioned medium from Cos7 cells transfected with pFLAG/R2FasL vector was added in the indicated volumes. After 36 more hours cytotoxicity was assayed using the LDH release assay as described herein (FIG. 17D).

Molecule | potentiation of R2FasL apoptotic activity (cell viability) [1] | potentiation of R2FasL cytotoxic activity (LDH release) [2] | cytotoxicity (LDH release) of R2FasL and VEGF [3] | cell death (cell count) [4] | activation by human and mouse VEGF-165 (cell viability) [5] | effect of R2FasL+VEGF on cell viability [6] | cytotoxicity (LDH release) [7] | cytotoxicity (LDH release) [8] | cytotoxicity (LDH release) [9]
CC[C@@]1(O)C(=O)OCc2c1cc1n(c2=O)Cc2cc3ccccc3nc2-1 [camptothecin] | Potentiation of R2FasL apoptotic activity | Potentiation of R2FasL cytotoxic activity |  |  |  |  |  |  | 
B1 |  |  | induce cytotoxicity | induces cell death | human and mouse VEGF-165 similarly activate R2FasL | No effect | induces cytotoxicity | induces cytotoxicity | does not induce cytotoxicity
